These results are taken from article doi:10.1101/327320.

By Kd is commonly meant the constant that tells how readily two partners part at equilibrium. A high value points to lower affinity.

Holding throughout (experiment): EMSA
The target in one series is T1, Pif1 (Saccharomyces cerevisiae, UniProt P07271 1-859).
T1 sequence: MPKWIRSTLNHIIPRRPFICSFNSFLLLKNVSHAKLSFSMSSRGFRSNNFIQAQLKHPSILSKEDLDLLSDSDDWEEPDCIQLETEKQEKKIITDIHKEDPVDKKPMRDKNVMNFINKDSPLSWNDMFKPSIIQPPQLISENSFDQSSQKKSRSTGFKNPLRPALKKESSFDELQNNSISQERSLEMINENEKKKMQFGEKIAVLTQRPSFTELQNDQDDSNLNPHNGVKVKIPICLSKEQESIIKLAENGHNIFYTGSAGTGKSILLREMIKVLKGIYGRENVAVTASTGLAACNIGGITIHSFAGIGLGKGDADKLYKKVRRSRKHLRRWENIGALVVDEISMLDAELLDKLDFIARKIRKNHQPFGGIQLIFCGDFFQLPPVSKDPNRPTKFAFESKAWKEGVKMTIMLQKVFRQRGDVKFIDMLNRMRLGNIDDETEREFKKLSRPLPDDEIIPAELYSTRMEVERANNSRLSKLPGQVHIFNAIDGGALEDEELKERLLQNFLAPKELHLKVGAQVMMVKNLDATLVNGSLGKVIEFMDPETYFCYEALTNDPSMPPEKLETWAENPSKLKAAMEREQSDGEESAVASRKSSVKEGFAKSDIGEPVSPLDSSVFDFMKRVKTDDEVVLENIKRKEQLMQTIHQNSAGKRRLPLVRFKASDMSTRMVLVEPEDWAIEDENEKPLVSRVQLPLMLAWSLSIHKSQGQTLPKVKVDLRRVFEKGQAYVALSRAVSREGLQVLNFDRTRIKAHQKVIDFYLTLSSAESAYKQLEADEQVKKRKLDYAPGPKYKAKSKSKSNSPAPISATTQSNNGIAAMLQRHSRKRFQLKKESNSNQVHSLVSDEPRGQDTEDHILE

In the next series the target is T2, Pif1-K264A (Saccharomyces cerevisiae, UniProt P07271 1-859, K264A).
T2 sequence: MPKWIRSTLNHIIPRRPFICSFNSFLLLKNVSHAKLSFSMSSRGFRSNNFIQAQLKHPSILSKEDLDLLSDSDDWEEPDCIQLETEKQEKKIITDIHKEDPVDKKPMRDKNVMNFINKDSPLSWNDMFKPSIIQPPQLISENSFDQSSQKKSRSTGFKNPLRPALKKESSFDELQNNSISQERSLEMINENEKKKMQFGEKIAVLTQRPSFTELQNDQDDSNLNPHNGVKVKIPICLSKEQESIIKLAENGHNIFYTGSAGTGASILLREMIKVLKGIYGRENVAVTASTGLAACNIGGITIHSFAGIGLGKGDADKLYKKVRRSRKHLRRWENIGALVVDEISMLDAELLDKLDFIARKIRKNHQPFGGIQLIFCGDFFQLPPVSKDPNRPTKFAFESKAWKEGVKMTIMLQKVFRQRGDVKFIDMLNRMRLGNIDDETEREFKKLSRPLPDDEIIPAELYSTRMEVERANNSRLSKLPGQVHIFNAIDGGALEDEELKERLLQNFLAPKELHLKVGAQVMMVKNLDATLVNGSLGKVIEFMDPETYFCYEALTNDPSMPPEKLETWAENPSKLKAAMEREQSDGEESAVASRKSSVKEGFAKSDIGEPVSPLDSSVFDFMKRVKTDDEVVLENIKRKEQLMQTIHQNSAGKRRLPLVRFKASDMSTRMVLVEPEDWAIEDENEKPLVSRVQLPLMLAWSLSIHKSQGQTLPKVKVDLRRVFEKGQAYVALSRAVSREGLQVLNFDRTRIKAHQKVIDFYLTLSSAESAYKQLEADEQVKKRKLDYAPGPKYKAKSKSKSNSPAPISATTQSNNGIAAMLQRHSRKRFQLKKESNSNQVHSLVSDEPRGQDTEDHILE

Another series concerns the target T3, Hrq1 (Saccharomyces cerevisiae, UniProt Q05549 1-1077).
T3 sequence: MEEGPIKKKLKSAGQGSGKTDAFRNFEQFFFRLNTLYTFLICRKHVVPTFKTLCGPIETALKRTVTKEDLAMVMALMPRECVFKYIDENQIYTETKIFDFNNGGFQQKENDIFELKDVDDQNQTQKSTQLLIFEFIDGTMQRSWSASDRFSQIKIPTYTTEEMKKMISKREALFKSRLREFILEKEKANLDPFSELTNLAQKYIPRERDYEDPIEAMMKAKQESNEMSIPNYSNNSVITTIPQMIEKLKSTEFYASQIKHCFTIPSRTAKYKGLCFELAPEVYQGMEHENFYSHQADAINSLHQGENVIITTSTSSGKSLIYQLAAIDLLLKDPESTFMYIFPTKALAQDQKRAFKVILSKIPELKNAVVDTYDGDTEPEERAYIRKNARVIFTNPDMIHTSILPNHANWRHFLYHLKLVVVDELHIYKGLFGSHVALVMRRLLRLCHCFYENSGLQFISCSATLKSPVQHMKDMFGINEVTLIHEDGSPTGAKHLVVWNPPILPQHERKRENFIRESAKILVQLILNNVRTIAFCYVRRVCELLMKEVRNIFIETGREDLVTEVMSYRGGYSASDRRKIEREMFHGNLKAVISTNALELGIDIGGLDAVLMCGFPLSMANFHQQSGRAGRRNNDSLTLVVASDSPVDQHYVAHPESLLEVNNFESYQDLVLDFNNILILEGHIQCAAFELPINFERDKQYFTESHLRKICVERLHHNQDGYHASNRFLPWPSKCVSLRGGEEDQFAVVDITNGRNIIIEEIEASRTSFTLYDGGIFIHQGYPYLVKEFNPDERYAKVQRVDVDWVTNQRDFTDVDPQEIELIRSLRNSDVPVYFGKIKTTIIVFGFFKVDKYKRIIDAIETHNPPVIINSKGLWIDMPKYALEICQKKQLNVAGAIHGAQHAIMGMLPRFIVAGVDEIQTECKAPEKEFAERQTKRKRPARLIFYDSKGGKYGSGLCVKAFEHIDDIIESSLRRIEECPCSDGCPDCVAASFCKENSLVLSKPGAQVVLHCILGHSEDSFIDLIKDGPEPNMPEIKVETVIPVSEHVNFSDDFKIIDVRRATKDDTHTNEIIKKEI

Another series deals with T4, Hrq1-K318A (Saccharomyces cerevisiae, UniProt Q05549 1-1077, K318A).
T4 sequence: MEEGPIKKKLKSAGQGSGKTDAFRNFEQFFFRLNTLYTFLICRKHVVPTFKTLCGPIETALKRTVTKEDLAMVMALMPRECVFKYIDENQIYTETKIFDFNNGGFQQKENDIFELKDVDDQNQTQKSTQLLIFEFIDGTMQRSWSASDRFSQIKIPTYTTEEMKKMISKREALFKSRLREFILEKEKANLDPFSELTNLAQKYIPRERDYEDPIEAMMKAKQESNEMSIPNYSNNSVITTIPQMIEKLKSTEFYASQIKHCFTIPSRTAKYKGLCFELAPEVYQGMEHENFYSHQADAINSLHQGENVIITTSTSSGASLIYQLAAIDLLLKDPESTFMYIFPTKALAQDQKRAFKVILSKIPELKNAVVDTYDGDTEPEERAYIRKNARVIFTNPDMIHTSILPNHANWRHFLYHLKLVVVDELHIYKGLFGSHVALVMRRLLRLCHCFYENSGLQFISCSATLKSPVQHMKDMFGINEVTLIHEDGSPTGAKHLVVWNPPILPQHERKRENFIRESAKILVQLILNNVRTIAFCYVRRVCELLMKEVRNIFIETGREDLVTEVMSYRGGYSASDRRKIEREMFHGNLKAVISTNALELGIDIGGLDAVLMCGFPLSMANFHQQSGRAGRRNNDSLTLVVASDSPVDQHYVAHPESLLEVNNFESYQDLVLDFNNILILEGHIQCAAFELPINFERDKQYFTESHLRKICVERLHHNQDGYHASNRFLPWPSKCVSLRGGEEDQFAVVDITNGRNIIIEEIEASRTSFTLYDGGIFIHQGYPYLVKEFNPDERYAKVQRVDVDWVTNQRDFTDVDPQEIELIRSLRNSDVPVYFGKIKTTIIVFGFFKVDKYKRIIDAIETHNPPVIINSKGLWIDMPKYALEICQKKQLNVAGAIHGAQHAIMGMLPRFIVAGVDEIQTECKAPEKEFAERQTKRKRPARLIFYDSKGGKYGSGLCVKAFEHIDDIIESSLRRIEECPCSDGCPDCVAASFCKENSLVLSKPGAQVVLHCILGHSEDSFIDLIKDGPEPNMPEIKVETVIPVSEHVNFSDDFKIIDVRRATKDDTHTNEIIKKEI

In the next series the target is Hrq1;Pif1 (Saccharomyces cerevisiae;Saccharomyces …, UniProt Q05549;P07271 1-1077;1-859, |).

B1: Tel30 (ssDNA)
DNA: CGCCATGCTGATCCGTGTGGTGTGTGTGGG
Consider B1, for which the Kd in the series with Pif1 amounted to 33.5 nM; with Pif1-K264A, 41.2 nM; with Hrq1, 16.1 nM; in the series with Hrq1-K318A it was 105 nM.

B2: MB1429 poly(dT) 25 nt with 3' inverted dT (ssDNA)
DNA: TTTTTTTTTTTTTTTTTTTTTTTTT
modifications: 3'-terminal T25 is inverted dT (3'-3' linkage, two 5' ends, no free 3' end)
B2 came in with a Kd in the series with Hrq1 of about 35 nM.

B3: Tel50 (ssDNA)
DNA: GTGTGGGTGTGGTGTGGGTGTGGTGTGGGTGTGTGGTGTGGTGTGTGTGG
For B3, the binding result in the series with Hrq1;Pif1 is recorded as “binds”.

B4: Tel15 (ssDNA)
DNA: TGTGGTGTGTGTGGG
As to B4, the binding result with Pif1 and with Pif1-K264A was “binds” throughout.

B5: MB463 poly(dT) 25 nt (ssDNA)
DNA: TTTTTTTTTTTTTTTTTTTTTTTTT
Turning to B5, in the series with Hrq1, the Kd was about 35 nM.
